Assay [1] deals with 裂谷热病毒Gn蛋白 (GenBank: DQ380208.1) (裂谷热病毒 (Rift Valley fever virus)).
Assay [2] has the same target. This is another data set of the same source.
For assay [3] the target is unchanged. The source holds these as a separate data set.

We go through one molecule from patent CN114634565A.

B1: 抗裂谷热病毒的单克隆抗体E44 (antibody, V domains shown)
VH: QVQLQQWGEGLVNPSEALSLTCAVYGDSISDDYHWSWIRQPPGKGLEWIGYIFGSSAGTNYNPSLKNRVTISKDTSKNQFSLELTSVTAADTAVYYCARDVTTDRLDVWGPGVPVTVSS
VL: NFMLTQPPSVSADQGQRVTISCSGSSFNVRRYYVSWYQQVPGAAPKLLISDVNKRPSGVSDRFSGSQSGTSATLGISGLRPEDEADYYCSVWDSSLGARVFGGGTRLTVLG
One may read the EC50 as the concentration at which the effect is half-maximal. As usually defined, the Kd is a measure of binding affinity in units of concentration. Low values mean higher affinity, high ones lower affinity. For the molecule B1, in assay [1], the EC50 stood at 2.66 ng/mL. Besides, the Kd in assay [2] came to 2.58 nM. In addition, the OD值 (OD450nm-OD630nm) in assay [3] was determined as 2.35.
